# From US9920082B2, “Water-soluble complexing agents and corresponding lanthanide complexes” (CISBIO BIOASSAYS, priority 2013, dated 2018)
# Columns and labels:
# [1] = Determination of Log P (octanol/water partition coefficient) of europium complexes; assay type: physicochemical; conditions: water/octanol mixtures 2:1, 1:1, 1:2, about 2 μM, ±20%
# Description: Log P is a measure of the differential solubility of chemical compounds in two solvents (octanol/water partition coefficient). Log P is equal to the logarithm of the ratio of the concentrations of the substance under investigation in octanol and in water. Log P=Log(Coct/Cwater). This value ascertains the hydrophilic or hydrophobic (lipophilic) character of a molecule. In fact, if Log P is positive and very high, this expresses the fact that the molecule considered is far more soluble in octanol than in water, which reflects its lipophilic character, and vice versa. Zero or negative Log P signifies that the molecule is of a hydrophilic character.
# Three equimolar solutions of europium complex were prepared in methanol. The solvent was removed under reduced pressure and the solid that remained was dissolved and stirred for 24 h in a water/octanol mixture (2:1, 1:1, 1:2), (0.9 mL) giving a total concentration of about 2 μM. After equilibration, an emission spectrum of each phase was recorded in methanol (50 μL of solution in 1 mL of methanol). For each mixture, the value of log P was calculated using the following equation: […]
# [2] = Photophysical properties of the complexes (λ max, quantum yield, life-time); assay type: physicochemical; conditions: solvent MeOH
# Description: The photophysical characteristics of some complexes are described in Table 3. […] The values of the quantum yields (Φcm) must be considered to have a margin of error of ±15%. All these complexes have quantum yields above 10%, without adding potassium fluorides. The life-times (τ0) are at least 0.7 ms, which is favorable for FRET experiments. Finally, the complexes comprising solubilizer groups of the sulfonate or carboxylate type are highly soluble in aqueous biological buffers. The presence of charges makes complexes water-soluble that were not so initially.
smiles,measurement,setting,value
COc1ccc(C#Cc2cc(CN3CCN(Cc4cc(C#Cc5ccc(OC)cc5)cc(P(C)(=O)O)n4)CCN(Cc4cc(C#Cc5ccc(OCC(=O)NCC(=O)N[C@@H](CCCNC(=N)N)C(=O)N[C@@H](CCCNC(=N)N)C(=O)N[C@@H](CCCNC(=N)N)C(=O)N[C@@H](CCCNC(=N)N)C(=O)N[C@@H](CCCNC(=N)N)C(=O)N[C@@H](CCCNC(=N)N)C(=O)N[C@@H](CCCNC(=N)N)C(=O)O)cc5)cc(P(C)(=O)O)n4)CC3)nc(P(C)(=O)O)c2)cc1 [Compound 89],logP,[1],0.3
same,λ max,[2],330 nm
same,τ0,[2],1.12 ms
same,Φem,[2]; margin of error ±15%,50%
